The text below walks through data of publication doi:10.1101/721969.

In the experiment the target is Ib-pore (heptameric translocation channel of Clostridium perfringens iota toxin component Ib, after (Clostridium perfringens)). The experiment can be described thus: cryo-EM structure.

Substance “Ib-pore (heptameric translocation channel of Clostridium perfringens iota toxin component Ib, after (natural protein)” registered a stoichiometry N of 7.

As usually defined, the stoichiometry N is a count of units in the complex or per binding partner.
